Data on seven molecules can be found in patent US20040142357A1 (BETH ISRAEL DEACONESS MEDICAL CENTER, published 2004).

The target in assay [1] is T1, GST (glutathione-S-transferase alone, on glutathione beads) (UniProt P08515 1-218 = GST).
T1 construct: Control protein; also called GST tag
The experiment in a line: GST pulldown from HeLa lysates, immunoblot with anti-GFP. How it is done: (§1) GST pulldown, immunoprecipitation and immunoblotting analysis were performed as described (Lu et al., 1999; Shen et al., 1998). Briefly, relevant proteins were expressed in HeLa or HT1080 cells by transient transfection, or translated in vitro using the TNT coupled transcription/translation kit (Promega) in the presence of [³⁵S]-Met, followed by lysis or dilution in a buffer containing 50 mM HEPES, pH 7.5, 150 mM NaCl, 100 mM NaF, 1 mM sodium orthovanadate, 10% glycerol, 1% Triton X100, 10 μg/ml aprotinin, 10 μg/ml leupeptin, 50 μg/ml phenylmethylsulfonyl fluoride and 1 mM DTT. The cellular supernatants were incubated with 1 μM GST or GST fusion proteins for 1 hr at 4° C. and 15 μl of glutathione agarose beads were then added, followed by further incubation for 2 h at 4° C. The precipitated proteins were washed 4 times in the same buffer and subjected to immunoblotting analysis. Other antibodies used for immunoprecipitation and immunoblotting analysis include anti-Pin2/TRF1 (Shen et al., 1997) and anti-hTERT antibodies (Novus). Membranes containing RNAs isolated from different human tissues (Clontech) were hybridized to the C-terminal coding sequence of PinX1 and then stripped, followed by reprobing with the house-keeping gene GAPDH for loading control.
(§2) To map the region in PinX1 that interacts with Pin2, we expressed different PinX1 fragments in HeLa cells as GFP fusion proteins (FIG. 3E), and then subjected them to GST pulldown experiments with GST-Pin2.
(In general: In western blotting, separated proteins are transferred to a membrane and probed.)

Assay [2] has as its target telomerase of HT1080 cells (telomerase-containing fraction, or cellular telomerase in stable HT1080 lines) (human, UniProt O14746 1-1132, limits assumed). The experiment in a line: cell-based or functional assay.
The target in assay [3] is T1, GST (glutathione-S-transferase alone, …). Description: GST pulldown from HeLa lysates, immunoblot with anti-HA. The protocol:
as §1, with “control. […]” for “control.”

Assay [4] deals with T2, GST-Pin2 (human, UniProt P54274 2-439).
T2 construct: Produced as described in Shen et al., 1997; also called GST-Pin2 beads (Pin2); not shown: glutathione-S-transferase (GST) tag
T2 sequence: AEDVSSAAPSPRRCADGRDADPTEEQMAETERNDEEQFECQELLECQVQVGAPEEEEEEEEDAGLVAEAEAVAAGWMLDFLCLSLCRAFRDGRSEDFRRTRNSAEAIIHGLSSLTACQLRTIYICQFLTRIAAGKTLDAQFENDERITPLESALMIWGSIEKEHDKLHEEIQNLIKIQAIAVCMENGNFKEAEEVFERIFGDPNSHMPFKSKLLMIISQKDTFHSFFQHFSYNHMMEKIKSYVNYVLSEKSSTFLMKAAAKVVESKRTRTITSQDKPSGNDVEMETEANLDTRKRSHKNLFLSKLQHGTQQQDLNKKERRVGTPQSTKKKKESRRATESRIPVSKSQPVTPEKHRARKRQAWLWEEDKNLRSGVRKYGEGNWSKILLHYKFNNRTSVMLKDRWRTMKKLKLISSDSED
The experiment in a line: GST pulldown from HeLa lysates, immunoblot with anti-GFP. The protocol:
as §1, §2

Chain of telomerase of HT1080 cells (telomerase-containing fraction, or cellular telomerase in stable HT1080 lines) (O14746 whole entry): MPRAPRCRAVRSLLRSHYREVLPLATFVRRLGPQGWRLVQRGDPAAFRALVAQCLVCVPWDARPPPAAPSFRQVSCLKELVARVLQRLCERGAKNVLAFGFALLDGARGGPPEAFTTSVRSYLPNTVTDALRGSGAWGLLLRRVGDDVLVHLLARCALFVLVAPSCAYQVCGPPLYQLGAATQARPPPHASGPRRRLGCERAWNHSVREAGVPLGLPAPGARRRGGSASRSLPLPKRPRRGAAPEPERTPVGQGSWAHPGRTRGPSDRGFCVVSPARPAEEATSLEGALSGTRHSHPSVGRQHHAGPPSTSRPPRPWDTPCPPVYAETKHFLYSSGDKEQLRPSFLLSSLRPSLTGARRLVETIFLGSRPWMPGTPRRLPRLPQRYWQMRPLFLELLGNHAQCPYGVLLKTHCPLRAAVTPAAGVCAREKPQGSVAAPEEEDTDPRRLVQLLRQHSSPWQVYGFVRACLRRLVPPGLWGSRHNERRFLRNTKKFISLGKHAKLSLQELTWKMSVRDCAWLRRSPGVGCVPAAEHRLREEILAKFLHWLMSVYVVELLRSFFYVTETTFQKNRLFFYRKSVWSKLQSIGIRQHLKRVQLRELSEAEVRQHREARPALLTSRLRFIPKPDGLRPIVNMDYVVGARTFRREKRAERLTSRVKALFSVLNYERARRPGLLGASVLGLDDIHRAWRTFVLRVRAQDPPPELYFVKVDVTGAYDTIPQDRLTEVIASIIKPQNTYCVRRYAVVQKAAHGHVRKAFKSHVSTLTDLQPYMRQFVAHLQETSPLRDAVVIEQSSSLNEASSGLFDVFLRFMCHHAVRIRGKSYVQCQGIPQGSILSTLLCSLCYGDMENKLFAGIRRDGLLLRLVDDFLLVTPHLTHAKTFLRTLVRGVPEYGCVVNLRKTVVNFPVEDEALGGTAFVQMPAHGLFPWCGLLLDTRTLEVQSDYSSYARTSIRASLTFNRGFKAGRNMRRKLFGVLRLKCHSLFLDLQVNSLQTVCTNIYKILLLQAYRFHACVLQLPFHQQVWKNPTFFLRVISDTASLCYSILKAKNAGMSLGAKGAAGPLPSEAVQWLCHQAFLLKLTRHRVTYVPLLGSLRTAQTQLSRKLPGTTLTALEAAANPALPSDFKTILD
T1 sequence (P08515 whole entry): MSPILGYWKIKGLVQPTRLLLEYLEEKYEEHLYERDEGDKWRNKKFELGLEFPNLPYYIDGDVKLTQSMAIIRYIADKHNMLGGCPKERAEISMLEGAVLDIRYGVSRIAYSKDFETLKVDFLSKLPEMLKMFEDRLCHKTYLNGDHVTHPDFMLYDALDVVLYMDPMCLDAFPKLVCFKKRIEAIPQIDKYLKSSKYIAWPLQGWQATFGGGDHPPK

B1: GFP fusion of the PinX1 C-terminal 142-328 amino acid fragment (other)
chain: DLDCIFGKRQSKKTPEGDASPSTPEENETTTTSAFTIQEYFAKPVAALKNKPQVPVPGSDISETQVERKRGKKRNKEATGKDVESYLQPKAKRHTEGKPERAEAQERVAKKKCAPAEKQLRGPCWDQSSKASAQDAGDHVQPPEGRDFTLKPKKRRGKKKLQKPVEIAEDATLEETLVKKKKKKDSK
notes: Expressed in HeLa cells; not shown: GFP fusion partner
As for B1, the binding result in assay [1] is “no binding (tested: 1 µM)”.

B2: GST-PinX1 (N-terminal GST fusion of full length PinX1) (other, not shown: a dimerising Fc or GST)
chain: MSMLAERRRKQKWAVDPQNTAWSNDDSKFGQRMLEKMGWSKGKGLGAQEQGATDHIKVQVKNNHLGLGATINNEDNWIAHQDDFNQLLAELNTCHGQETTDSSDKKEKKSFSLEEKSKISKNRVHYMKFTKGKDLSSRSKTDLDCIFGKRQSKKTPEGDASPSTPEENETTTTSAFTIQEYFAKPVAALKNKPQVPVPGSDISETQVERKRGKKRNKEATGKDVESYLQPKAKRHTEGKPERAEAQERVAKKKCAPAEKQLRGPCWDQSSKASAQDAGDHVQPPEGRDFTLKPKKRRGKKKLQKPVEIAEDATLEETLVKKKKKKDSK
On to B2, for which the “IC50 of inhibition of telomerase activity in vitro (TRAP assay)” value in assay [2] is about 50 nM.

B3: HA-PinX1 (PinX1 with an N-terminal HA epitope tag) (other, not shown: small tags and cut ends)
chain: MSMLAERRRKQKWAVDPQNTAWSNDDSKFGQRMLEKMGWSKGKGLGAQEQGATDHIKVQVKNNHLGLGATINNEDNWIAHQDDFNQLLAELNTCHGQETTDSSDKKEKKSFSLEEKSKISKNRVHYMKFTKGKDLSSRSKTDLDCIFGKRQSKKTPEGDASPSTPEENETTTTSAFTIQEYFAKPVAALKNKPQVPVPGSDISETQVERKRGKKRNKEATGKDVESYLQPKAKRHTEGKPERAEAQERVAKKKCAPAEKQLRGPCWDQSSKASAQDAGDHVQPPEGRDFTLKPKKRRGKKKLQKPVEIAEDATLEETLVKKKKKKDSK
notes: Expressed in HeLa or HT1080 cells; also called transfected PinX1 protein; 50 kDa HA-PinX1 protein
Regarding B3, the “fold decrease in telomerase activity in stable HT1080 cells (TRAP assay)” value in assay [2] was about 5 fold. In addition, the binding result in assay [3] is given as “no binding (tested: 1 µM)”.

B4: GFP-PinX1 (full length PinX1 as a GFP fusion protein) (other)
chain: MSMLAERRRKQKWAVDPQNTAWSNDDSKFGQRMLEKMGWSKGKGLGAQEQGATDHIKVQVKNNHLGLGATINNEDNWIAHQDDFNQLLAELNTCHGQETTDSSDKKEKKSFSLEEKSKISKNRVHYMKFTKGKDLSSRSKTDLDCIFGKRQSKKTPEGDASPSTPEENETTTTSAFTIQEYFAKPVAALKNKPQVPVPGSDISETQVERKRGKKRNKEATGKDVESYLQPKAKRHTEGKPERAEAQERVAKKKCAPAEKQLRGPCWDQSSKASAQDAGDHVQPPEGRDFTLKPKKRRGKKKLQKPVEIAEDATLEETLVKKKKKKDSK
notes: as for B1
Regarding B4, the binding result in assay [1] is “no binding (tested: 1 µM)”.

B5: GST-PinX1-C (GST fusion of the C-terminal 74 amino acid fragment of PinX1, the telomerase inhibitory domain TID) (other, not shown: a dimerising Fc or GST)
chain: CAPAEKQLRGPCWDQSSKASAQDAGDHVQPPEGRDFTLKPKKRRGKKKLQKPVEIAEDATLEETLVKKKKKKDSK
For the molecule B5, the “IC50 of inhibition of telomerase activity in vitro (TRAP assay)” value in assay [2] is about 50 nM.

B6: GFP fusion of the PinX1 254-328 amino acid fragment (other)
chain: CAPAEKQLRGPCWDQSSKASAQDAGDHVQPPEGRDFTLKPKKRRGKKKLQKPVEIAEDATLEETLVKKKKKKDSK
notes: Expressed in HeLa cells; also called GFP-PinX1-C; C-terminal 74 amino acid fragment; not shown: GFP fusion partner
With B6, the binding result in assay [1] is “no binding (tested: 1 µM)”.

B7: GFP fusion of the N-terminal 142 amino acid fragment of PinX1 (other)
chain: MSMLAERRRKQKWAVDPQNTAWSNDDSKFGQRMLEKMGWSKGKGLGAQEQGATDHIKVQVKNNHLGLGATINNEDNWIAHQDDFNQLLAELNTCHGQETTDSSDKKEKKSFSLEEKSKISKNRVHYMKFTKGKDLSSRSKTD
notes: Expressed in HeLa cells; also called GFP-PinX1-N; PinX1-N; not shown: GFP fusion partner
For the molecule B7, the binding result in assay [1] and in assay [4] was “no binding (tested: 1 µM)” throughout.
